For test [1], the target named is GST-IRE1α-C (aa 468-977) (human, UniProt O75460 468-977). The test is described as follows: cell-based or functional assay.
The target in test [2] is T1, bovine serum albumin (bovine, UniProt P02769 25-607).
T1 construct: serum albumin, bovine; negative control of the biolayer interferometry; also called BSA; source: bought: Sigma-Aldrich
The test is described as follows: BLI; BLItz (ForteBio); biotinylated fortilin immobilised on streptavidin-coated biosensors (25 μg/mL, 600 s), buffer exchange in PBS; analyte at various concentrations for 180 s, dissociation in PBS for 300 s; three independent experiments. As to conditions: both partners purified. For orientation: In BLI a coated tip is dipped into the sample, and binding shifts an interference pattern.

T1 sequence (P02769 25-607): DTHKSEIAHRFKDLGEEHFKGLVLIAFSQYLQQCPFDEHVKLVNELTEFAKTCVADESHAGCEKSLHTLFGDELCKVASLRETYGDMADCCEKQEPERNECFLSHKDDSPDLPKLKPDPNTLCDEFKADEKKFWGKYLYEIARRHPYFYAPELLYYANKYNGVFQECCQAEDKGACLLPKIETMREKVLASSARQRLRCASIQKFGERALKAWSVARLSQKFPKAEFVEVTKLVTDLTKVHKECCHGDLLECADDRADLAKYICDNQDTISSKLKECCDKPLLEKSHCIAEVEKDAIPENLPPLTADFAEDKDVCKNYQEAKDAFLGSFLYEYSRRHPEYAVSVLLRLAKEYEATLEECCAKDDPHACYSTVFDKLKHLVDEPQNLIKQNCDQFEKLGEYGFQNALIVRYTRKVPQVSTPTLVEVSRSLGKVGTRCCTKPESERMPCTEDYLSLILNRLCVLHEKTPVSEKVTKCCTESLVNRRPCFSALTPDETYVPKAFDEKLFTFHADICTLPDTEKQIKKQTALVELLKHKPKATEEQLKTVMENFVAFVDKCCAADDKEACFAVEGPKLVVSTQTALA
Chain of GST-IRE1α-C (aa 468-977) (O75460 468-977): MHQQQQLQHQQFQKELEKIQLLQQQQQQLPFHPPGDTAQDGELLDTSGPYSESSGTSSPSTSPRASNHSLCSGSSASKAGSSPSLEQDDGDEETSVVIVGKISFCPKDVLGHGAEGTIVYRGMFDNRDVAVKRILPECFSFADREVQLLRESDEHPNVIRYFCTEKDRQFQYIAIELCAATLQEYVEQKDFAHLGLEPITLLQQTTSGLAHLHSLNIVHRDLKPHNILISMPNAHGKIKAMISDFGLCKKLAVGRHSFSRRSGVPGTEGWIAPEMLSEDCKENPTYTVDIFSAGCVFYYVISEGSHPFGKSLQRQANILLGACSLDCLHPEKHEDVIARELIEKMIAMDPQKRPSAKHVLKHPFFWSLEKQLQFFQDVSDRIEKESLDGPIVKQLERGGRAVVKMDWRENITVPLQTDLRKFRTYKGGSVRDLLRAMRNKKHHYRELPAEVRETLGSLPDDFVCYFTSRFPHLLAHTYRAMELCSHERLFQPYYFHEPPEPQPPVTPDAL

B1: recombinant human fortilin (Strep-tag II), biotinylated (natural protein, UniProt P13693 1-172, looked up)
chain: MIIYRDLISHDEMFSDIYKIREIADGLCLEVEGKMVSRTEGNIDDSLIGGNASAEGPEGEGTESTVITGVDIVMNHHLQETSFTKEAYKKYIKDYMKSIKGKLEEQRPERVKPFMTGAAEQIKHILANFKNYQFFIGENMNPDGMVALLDYREDGVTPYMIFFKDGLEMEKC
modifications: biotinylated (sites not given)
notes: fortilin (translationally controlled tumor protein), human, described as a 172-amino-acid polypeptide; cDNA encoding human fortilin cloned into pESG-IBA5; Biotinylated for BLI; also called translationally controlled tumor protein; Strep-tagged fortilin; source: 293T cells stably expressing it, purified (Strep-Tactin-Superflow resin)
Broadly, the Kd is the concentration at which binding is half-saturated. The low end stands for tighter binding, the high end for weaker binding. Consider B1, for which the “in vitro IRE1α kinase activity: incorporation of γ-33P from [γ-33P]ATP into myelin basic protein; IC50 of fortilin” value in test [1] stood at 0.77 µM. Besides, the Kd in test [2] is 1050 µM.

The record behind these values is PMC5446404, “Fortilin binds IRE1α and prevents ER stress from signaling apoptotic cell death” (Nature Communications, 2017).
